From patent US20200223906A1 (Adimab, published 2020)
Residue numbers refer to the chain shown, from its start.

B1: ADI-19013 (antibody, V domains shown)
VH: QVQLVQSGAEVKKPGESLKISCKGSGYSFSSYWIGWVRQMPGKGLEWMGIIYPGDSDTRYSPSLQGQVTISGDKSISTAFLQWSSLKASDTAMYYCARPMTTQEGFDLWGQGTMVTVSS
VL: DIRLTQSPSSVSASVGDRVTITCRASQGISDWLAWYQQKPGKAPKLLIYAASSLQSGVPSRFSGSGSGTDFTLTISSLQPEDFATYYCQQTNSFLPLTFGGGTKVDIK
notes: full-length IgG; also called Antibody Number 361
B2: ADI-18989 (antibody, V domains shown)
VH: EVQLVESGGGLVQPGGSLRLSCAASGFSFNTYSMNWVRQAPGKGLEWLSFISSSSHTLYYADSVKGRFTVFRDNAKHSLFLQMNGLRDEDTAVYFCARSLGSGNYDNEDQTFYYYYGMDVWGQGTTVTVSS
VL: ETTLTQSPLSLPVTPGEPASISCRSSQSLLFHSNGHNYLDWYLQKPGQSPQLLIHLGSNRASGVPDRFSGSGSGTDFTLKISRVEPEDVGVYYCMQALQTPYTFGQGTKVEIK
notes: full-length IgG
B3: ADI-18995 (antibody, V domains shown)
VH: EVQLVESGPGLVKPSETLSLSCIVSGGSITSGDYYWSWLRQSPGKGLEWIGYIYHSGATFYTPSLRSRVTISTDTSKNQFSLRLSSVTAADTAVYYCASGPVGMATSNWFDPWGQGTLVTVSS
VL: SYELTQPPSVSVAPGKTATITCGGDIIRTNSVNWYQQKPGQAPLLLIYYDSDRPSGIPERFSASNSGNTATLTISRVEAGDEADYYCQVWDSGTDYHVVFGGGTKLTVQ
notes: full-length IgG; also called Antibody Number 343
B4: ADI-18922 (antibody, V domains shown)
VH: QVQLQESGPGRVKPSETLSLTCSVADGSISSGHYYWGWVRQPPGKGLEWIATIHDSGATYYNPSLQSRVTISVDTSKNQFSLKVNSVTAADTAVYYCASRRGSGWFFDSWGQGTLVTVSS
VL: DIVLTQSPATLSVSPGERVTLSCRASHSVNYNLAWYQQKPGQAPRLLIYGSSTRATGLPARFSGSGSGTEFTLTISSLQSEDFAIYYCQQYNNWPPGGTFGQGTKVEIK
notes: full-length IgG from yeast; also called Antibody Number 276; Ab # 276
B5: ADI-18899 (antibody, V domains shown)
VH: EVQLVESGGGVVQSGRSLRLSCAASGFTFSDNGMHWVRQAPGKGLEWVAGIFYDGSNKQYADSVKGRFTISRDNSKSTLYLQMNSLRAEDTAVYYCARAPYDIWSGYCLDYWGQGTLVTVSS
VL: DIRLTQSPATLSMSPGERATLSCRASQSVNNNLAWYQQRPGQAPRLLIYGASTRATGIPARFSGSGSETEFTLTISSLQSEDFAVYHCQQYSIWPQTFGQGTKVDIK
notes: full-length IgG from yeast
B6: ADI-18948 (antibody, V domains shown)
VH: B5 VH with V5L, A23V, N32S, I51L
VL: B5 VL with D1E, R3V, S12Y, V104L, D105E
notes: full-length IgG from yeast; also called Antibody Number 300; Ab # 300
B7: ADI-18955 (antibody, V domains shown)
VH: B5 VH with T28I, S77N, N84K
VL: B5 VL with R3Q, L4V, D105E
notes: full-length IgG from yeast; also called Antibody Number 306; Ab # 306
B8: ADI-18998 (antibody, V domains shown)
VH: EVQLLESGPGLVKPSQTLSLTCTVSGGSINSIDYYWSWIRQPPGKGLEWIGYIYHSGSTHYRPSLKSRVTISLDKAKNEFSLSLTSVTAADTAVYFCASGPVGMATSNWFDPWGQGTLVTVSS
VL: QPVLTQPPSVSVTPGETARLPCEGDIVVTNSVHWYQQKPGQAPVLVVYYDSDRASGIPERFSGSNSGNTATLSISRVEAGDEADYYCQVWDSSTDHHVVFGGGTKLTVL
notes: full-length IgG; also called Antibody Number 346
B9: ADI-19012 (antibody, V domains shown)
VH: EVQLVESGPGLVKPSGTLSLTCAVSGDSIVGSDWWSWIRQPPGKGLEWIGDIYHGGTTSYNPSLKSRVTMSVDKSKNQFSLKLTSVTAADTAVYYCARLSGNCSGGSCYSPFDHWGQGTLVTVSS
VL: DIQMTQSPSSLSASVGDRVTITCRASQTINGYLNWYQQRPGKAPKLLISAASSLQSGVPSRFRGSGYGTDFTLTISSLQPEDFATYFCQQSYNTVYTFGQGTKVDIK
notes: full-length IgG; also called Antibody Number 360
B10: ADI-19001 (antibody, V domains shown)
VH: EVQLVESGGGLVKPGRSLRLSCTASGFNFGDYAMSWFRQAPGKGLEWVGFIRSKTYRETREYAASVKGRFTMSRDDFNRIAYLQMNSLKTEDTAMYYCTRQDDFWSGHPYYFEYWGQGTLVTVSS
VL: QPVLTQPPSASGSPGQSVTISCTGTNSDVGSYNYVSWYQHHPGKAPKLIIYDVAKRPSGVPDRFSGSKSGNTASLTVSGLQAEDEADYYCSSYAGSNDLGVFGTGTKLTVL
notes: full-length IgG; also called Antibody Number 349
B11: ADI-19014 (antibody, V domains shown)
VH: EVQLVESGPRLVKPSQTLSLTCTVYGGSISGGQNYYSWVRQPPGKGLEWIGYIFSSGTTYYKPSLKSRISISFDTSKNQFSLNLASVTAADTAVYFCARSADIDIVWGSSLYMPLWGQGTLVTVSS
VL: EIVLTQSPGTLSLSPGQRATLSCRATHIVSNSYLAWYQQKPGQAPRLLIHGVSIRATGIPDRFSGSGSGTDFTLTISRLEPEDFAVYFCQQYGTSPWTFGQGTKLEIK
notes: full-length IgG; also called Antibody Number 362
B12: ADI-18876 (antibody, V domains shown)
VH: QVQLQESGPGLVKPSQTLSLTCTVSGPSISSGDYYWTWIRQPPGKGLEWIGYIYNSGSTDYNPSLKSRITMSLDRSKNQFSLNLSSVTAADTAVYFCARDVGTLVLPTVAYYYGMDVWGQGTTVTVSS
VL: EIVLTQSPGTLSLSPGERATLSCRASESISSSYLAWYQQKPGQAPRLLIYDASSRATGIPDRFSGSGSGTDFTLTISSLEPEDFAVYYCQQYGSSPLVTFGPGTKVDIK
notes: full-length IgG from yeast
B13: ADI-18968 (antibody, V domains shown)
VH: EVQLVESGPGLVKPSQTLSLTCTVSDVLISSGDYYWSWIRQSPGKGLEWLGYIYYTGKTKYNPSLESRITMSVDTSKNQFSLRLSSVTAADTAVYFCTRDLGYSTSSPSFYYGMDVWGQGTTVTVSS
VL: EIVLTQSPATLSLSPGERATLSCRASQSVGTYLAWYQQKPGQAPRLLIYDASYRVTGIPARFSASGSATDFTLTISSLEPEDFAVYFCQQRTNWPITFGQGTRLEIK
notes: full-length IgG from yeast
B14: ADI-18984 (antibody, V domains shown)
VH: QVQLQESGPGLVKPSETLSLTCTVSGASVTTNTYYWTWIRQPPGKELEWIGYIHHTGNTHYNPSLESRLTMSLDTSRNQFSLNLRSATTADTAVYYCARGEHFAYWWGNWGQGALVTVSS
VL: DIRVTQSPSSVSASVGDRVTITCRASQGIARWLAWYQQKPGKAPKLLIYAASSLQGGVPSRFSGSGYGTDFTLTISSLQPEDFATYYCQQANSFPRTFGQGTKVEIK
notes: full-length IgG
B15: ADI-18980 (antibody, V domains shown)
VH: QVQLVQSGAEVKKPGESLKISCKGFGYSFNSYWIAWVRQMPGKGLECMGIIYPGDSDTRYSPSFQGQVTISVDKSITTAYLQWSSLKVSDTAMYYCAKSNVGNTGWNYWGQGTLVTVSS
VL: EIVLTQSPATLSLSPGERATLSCRASHSVATDLAWYQQKPGQAPRLLIYDASKRATDVPARFSGSGSGTDFTLTISSLEPEDVAVYYCQEVRNWPPCTFGQGTKVDIK
notes: full-length IgG; also called Antibody Number 328
B16: ADI-18981 (antibody, V domains shown)
VH: EVQLQESGSRLVKPSQTLSLTCSVSGGSLNAGGYLWSWIRQPPGKGLEWVGYIYPSGTTYYNPSLQSRISISQDRSRNQFSLSVASVTAADTAVYYCARCGNEYGEVHPFDIWGQGTTVTVSS
VL: EIVLTQSPGTLSLSPGERATLSCRGSPIVGNNYLAWYQQKPGQAPRLLIYAASIRATGIPDRFSGSGSGTDFTLTISRLEPEDFAVYYCQQYGSSPWTFGQGTKVDIK
notes: full-length IgG; also called Antibody Number 329

How the values were obtained:
[1] = biological target: RSV F protein of subtype A (strain A2) on recombinant mKate-RSV (respiratory syncytial virus subtype A …, UniProt P03420 26-574); test: cell-based or functional assay
[2] = biological target: RSV F protein of subtype B (18537) on recombinant mKate-RSV (respiratory syncytial virus subtype B …, UniProt P13843 26-574); test: cell-based or functional assay
[3] = biological target: T1, RSV F ectodomain stabilized in the postfusion conformation (F ΔFP), subtype B (respiratory syncytial virus subtype B, UniProt P13843 26-109; P13843 147-524); test: BLI (Octet), IgG on AHQ sensor, 100 nM antigen
T1 construct: extracellular domain; Trimer; also called Postfusion subtype B

[4] = biological target: T2, RSV F ectodomain stabilized in the postfusion conformation (F ΔFP), subtype A (respiratory syncytial virus subtype A, UniProt P03420 26-109; P03420 147-524); test: BLI (Octet), IgG on AHQ sensor, 100 nM antigen
T2 construct: extracellular domain; Trimer; also called Postfusion subtype A

[5] = biological target: RSV F protein of subtype B (18537) on recombinant mKate-RSV virus (Respiratory syncytial virus subtype B …, UniProt P13843 26-574); test: cell-based or functional assay
[6] = biological target: RSV F protein of subtype A (strain A2) on recombinant mKate-RSV virus (Respiratory syncytial virus subtype A …, UniProt P03420 26-574); test: cell-based or functional assay
[7] = biological target: T3, RSV F subtype B, furin-cleaved ectodomain stabilized in the postfusion conformation (F ΔFP) (Respiratory syncytial virus subtype B); test: BLI, IgG on AHQ sensor, 100 nM antigen
T3 construct: extracellular domain; Trimeric soluble antigen; also called Postfusion subtype B

[8] = biological target: T4, RSV F subtype B, furin-cleaved ectodomain stabilized in the prefusion conformation (DS-Cav1) (Respiratory syncytial virus subtype B); test: BLI, IgG on AHQ sensor, 100 nM antigen
T4 construct: extracellular domain; Trimeric soluble antigen; also called Prefusion subtype B

[9] = biological target: T5, RSV F subtype A, furin-cleaved ectodomain stabilized in the postfusion conformation (F ΔFP) (Respiratory syncytial virus subtype A, UniProt P03420 26-109; P03420 147-524); test: BLI, IgG on AHQ sensor, 100 nM antigen
T5 construct: extracellular domain; Trimeric soluble antigen; also called Postfusion subtype A

[10] = biological target: T6, RSV F subtype A, furin-cleaved ectodomain stabilized in the prefusion conformation (DS-Cav1) (Respiratory syncytial virus subtype A, UniProt P03420 26-524); test: BLI, IgG on AHQ sensor, 100 nM antigen
T6 construct: extracellular domain; Trimeric soluble antigen; also called Prefusion subtype A

Row | Binder | Neut IC50 subtype A [1] [µg/mL] | Neut IC50 subtype B [2] [µg/mL] | Kd [3] [nM] | Kd [4] [nM] | Neut IC50 (µg/ml) subtype B [5] [µg/mL] | Neut IC50 (µg/ml) subtype A [6] [µg/mL] | Kd [7] [nM] | Kd [8] [nM] | Kd [9] [nM] | Kd [10] [nM]
1 | B1 | 9.5 | > 10 | 0.583 | – | – | – | – | – | – | –
2 | B2 | > 10 | > 10 | 0.377 | – | – | – | – | – | – | –
3 | B3 | 0.043 | 0.125 | – | 12.3 | – | – | – | – | – | –
4 | B4 | – | – | – | – | 5.05 | > 10 | 0.287 | 5.27 | 0.322 | 3.47
5 | B5 | – | – | – | – | 2.7 | 0.742 | 0.251 | 1.59 | 0.266 | 1.92
6 | B6 | – | – | – | – | 4.35 | 1.12 | 0.247 | 2.1 | 0.257 | 4.55
7 | B7 | – | – | – | – | 3.12 | 1.93 | 0.25 | 2.37 | 0.256 | 0.599
8 | B8 | 0.055 | 0.458 | – | 12.4 | – | – | – | – | – | –
9 | B9 | > 10 | > 10 | 0.314 | – | – | – | – | – | – | –
10 | B10 | > 10 | 3.26 | 0.149 | – | – | – | – | – | – | –
11 | B11 | 1.75 | > 10 | 0.277 | – | – | – | – | – | – | –
12 | B12 | – | – | – | – | 0.179 | 0.037 | 0.179 | 0.316 | 1.71 | 0.707
13 | B13 | – | – | – | – | 0.541 | 0.909 | 0.305 | 0.602 | 0.438 | 1.98
14 | B14 | > 10 | > 10 | 0.659 | – | – | – | – | – | – | –
15 | B15 | 3.6 | > 10 | 0.35 | – | – | – | – | – | – | –
16 | B16 | > 10 | > 10 | 0.28 | – | – | – | – | – | – | –
